For one data set, the target named is T1, eIF4E (His6x-eIF4E) (Saccharomyces cerevisiae, UniProt P07260).
T1 construct: gene CDC33; recombinant, N-terminal His6x tag kept, codon-optimized gene in pET3a, E. coli BL21 Rosetta 2 (DE3)
T1 sequence (P07260 1-213): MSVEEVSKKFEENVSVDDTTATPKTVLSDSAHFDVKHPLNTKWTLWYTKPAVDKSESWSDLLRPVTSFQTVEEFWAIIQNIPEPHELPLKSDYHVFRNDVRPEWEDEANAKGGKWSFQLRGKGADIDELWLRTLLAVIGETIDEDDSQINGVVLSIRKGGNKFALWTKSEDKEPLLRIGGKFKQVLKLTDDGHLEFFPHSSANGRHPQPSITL
Description: microscale thermophoresis, RED-tris-NTA labelled protein. The following applies: read-out: Cap-analog / MST. It is filed as binding. The source says:
microscale thermophoresis, RED-tris-NTA labelled protein on eIF4E (His6x-eIF4E)
For orientation: MST reads how a fluorescent partner responds to local heating, with and without ligand.

Data set [1] deals with T2, eIF4E/p20 complex (eIF4E/His6x-p20) (Saccharomyces cerevisiae, UniProt P07260).
T2 construct: gene CDC33; recombinant complex, untagged eIF4E (pET28a) co-expressed with His6x-p20 (pET3a, tag kept) in E. coli BL21 Rosetta 2 (DE3); with Cap-associated protein CAF20
T2 sequence (P07260 1-213): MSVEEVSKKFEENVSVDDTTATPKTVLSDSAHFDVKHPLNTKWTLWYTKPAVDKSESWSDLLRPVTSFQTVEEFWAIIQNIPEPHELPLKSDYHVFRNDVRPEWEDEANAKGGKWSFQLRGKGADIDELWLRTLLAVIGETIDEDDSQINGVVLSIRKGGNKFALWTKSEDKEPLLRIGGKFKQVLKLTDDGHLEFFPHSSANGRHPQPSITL
T2 sequence (P12962 1-161 partner): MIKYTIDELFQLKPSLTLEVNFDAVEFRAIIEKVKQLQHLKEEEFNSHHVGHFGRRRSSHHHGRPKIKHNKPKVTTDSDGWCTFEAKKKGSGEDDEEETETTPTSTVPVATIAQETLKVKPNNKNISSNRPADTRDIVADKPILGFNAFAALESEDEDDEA
The description is as above. In kind it is binding. The following applies: read-out: Cap-analog / MST. The source says: microscale thermophoresis, RED-tris-NTA labelled protein on eIF4E/p20 complex (eIF4E/His6x-p20)

For data set [2], the target named is T3, His6x-eIF4E (Saccharomyces cerevisiae) (UniProt P07260).
T3 sequence: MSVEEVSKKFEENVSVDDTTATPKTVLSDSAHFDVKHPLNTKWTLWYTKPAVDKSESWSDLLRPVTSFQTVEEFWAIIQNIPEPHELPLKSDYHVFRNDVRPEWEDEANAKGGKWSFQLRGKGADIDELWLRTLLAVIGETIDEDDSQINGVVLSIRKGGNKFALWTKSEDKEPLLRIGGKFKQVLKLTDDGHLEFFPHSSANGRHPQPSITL
Description: MST. The following applies: 5' m7GpppG cap (Vaccinia Capping System), Buffer A: 10 mM sodium phosphate pH 7.5, 100 mM NaCl, 2.5 mM MgCl2, 1 mM DTT, 0.05% NP40, MST at 25 C (proteins for capped RNA MST RED-tris-NTA labeled in …).

Data set [3] deals with T3, His6x-eIF4E (Saccharomyces cerevisiae). Description: EMSA. The conditions noted are these: 5' m7GpppG cap (Vaccinia Capping System); Buffer A: 10 mM sodium phosphate pH 7.5, 100 mM NaCl, 2.5 mM MgCl2, 1 mM DTT, 0.05% NP40; MST at 25 C (proteins for capped RNA MST RED-tris-NTA labeled in …). Background: Mobility shift assays separate free from complexed probe on a gel.
The target of another data set is T4, His6x-eIF4E (Saccharomyces cerevisiae, UniProt P07260 1-213).
T4 sequence: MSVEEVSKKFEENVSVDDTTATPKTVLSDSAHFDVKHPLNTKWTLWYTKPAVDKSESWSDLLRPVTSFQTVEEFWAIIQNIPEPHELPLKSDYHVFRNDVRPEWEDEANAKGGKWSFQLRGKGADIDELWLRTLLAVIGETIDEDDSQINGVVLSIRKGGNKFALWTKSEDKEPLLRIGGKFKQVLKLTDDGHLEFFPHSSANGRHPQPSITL
Description: MST; up to 96 uM protein; Buffer A: 10 mM sodium phosphate pH 7.5, 100 mM NaCl, 2.5 mM MgCl2, 1 mM DTT, 0.05% NP40; MST at 25 C (proteins for capped RNA MST RED-tris-NTA labeled in buffer B: 20 mM HEPES-KOH pH 7.5, 50 mM NaCl, 1 mM DTT); EMSA 1.5% agarose, 1x TBE, temperature not stated. The conditions noted are these: protein: recombinant; tags: N-terminal His6x; label: 3' FAM.

Data on three molecules can be found in paper PMC5928113, “Properties of the ternary complex formed by yeast eIF4E, p20 and mRNA” (Scientific Reports, 2018).

With `C[n+]1cn([C@@H]2O[C@H](COP(=O)(O)OP(=O)(O)OP(=O)(O)OC[C@H]3O[C@@H](n4cnc5c(=O)[nH]c(N)nc54)[C@H](O)[C@@H]3O)[C@@H](O)[C@H]2O)c2nc(N)[nH]c(=O)c21` [m^7GpppG], the Kd at eIF4E (His6x-eIF4E) came to 425 nM; in data set [1], 420 nM.

“GGGAACAAAAGCUGGUAAUCAAGAAUUACAAGAAACAAAAAUUCAAGUAAAUAACAGAUAAUAC [capped SSA1 5'UTR RNA, 64 nt]”: the Kd was 226 nM in data set [2]; 230 nM in data set [2] (no peptide, control of the peptide experiment); 275 nM in data set [3].

Take GUAUUACAAGAAACAAAAAUUCAAGUAAAUAACAGAUAAU (ssRNA) [uncapped SSA1 5'UTR RNA, 40 nt]: the binding result in the data set with His6x-eIF4E is “no binding”.
